Experimental data from patent publication US20220135694A1, “NOVEL CD40-BINDING ANTIBODIES” (LAVA THERAPEUTICS B.V., priority 2019, published 2022).

B1: V19S76K-5C8 (bispecific antibody)
chain: QVQLQESGGGLVQAGGSLRLSCAASGRTFGRSAMGWFRQAPGKEREFVAAIGTRGGSTKYADSVKGRFTISTDNAKNTVYLQMDSLKPEDTAVYRCAVRGPGYPSAAIFQDEYHYWGQGTQVTVSSGGGGSEVQLVESGGGLVQAGGSLRLSCAASGRPFSNYAMGWFRQAPGKEREFVAAISWSGGSTSYADSVKGRFTISRDNAKNTVYLQMNSPKPEDTAIYYCAAQFSGADYGFGRLGIRGYEYDYWGQGTQVTVSS
notes: also called bispecific anti-CD40-anti-Vγ9Vδ2 TCR VHH V19S76K-5C8; bsVHH
B2: V19t: monovalent anti-CD40 VHH V19 with C-terminal Myc- and His6-tag, SEQ ID NO:15 (protein)
VHH: QVQLQESGGGLVQAGGSLRLSCAASGRTFGRSAMGWFRQAPGKEREFVAAIGTRGGSTKYADSVKGRFTISTDNASNTVYLQMDSLKPEDTAVYRCAVRGPGYPSAAIFQDEYHYWGQGTQVTVSSGLEGHSDHMEQKLISEEDLNRISDHHHHHH
modifications: antibody sequence
B3: V15t: monovalent anti-CD40 VHH V15 with C-terminal Myc- and His6-tag, SEQ ID NO:16 (protein)
VHH: EVQLQESGGGLVQAGGSLRLSCVTSGSAFSSDTMGWFRQAPGKQRELVASISSRGVREYADSVKGRFTISRDNAKNTVYLQMNSLQPEDTAVYYCNRGALGLPGYRPYNNWGQGTQVTVSSGLEGHSDHMEQKLISEEDLNRISDHHHHHH
modifications: antibody sequence

Legend:
[1] = molecular target: T1, human CD40 (human, UniProt P25942 21-277); experiment: flow cytometry on CD40+ CII cells, anti-llama IgG detection, non-linear regression
T1 construct: In the assays it stood on CD40-transfected HEK293T cells, primary CLL cells or the CLL-derived CII cell line; also called tumor necrosis factor receptor superfamily member 5; TNR5_HUMAN
T1 sequence (P25942 21-277 limits assumed): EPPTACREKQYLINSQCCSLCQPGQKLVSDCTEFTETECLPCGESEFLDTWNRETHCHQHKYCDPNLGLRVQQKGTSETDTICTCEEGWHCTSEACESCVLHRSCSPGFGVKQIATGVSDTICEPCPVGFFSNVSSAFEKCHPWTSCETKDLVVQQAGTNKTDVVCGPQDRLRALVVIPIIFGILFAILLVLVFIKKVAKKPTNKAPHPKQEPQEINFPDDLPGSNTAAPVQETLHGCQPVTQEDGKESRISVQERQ
Procedure: (§1) FIG. 6: V19S76K-5C8 binds to CD40⁺ and Vγ9Vδ2+ cells. Cell lines were incubated with V19S76K-5C8 or medium control and bound bsVHH was detected using anti-llama IgG heavy and light chain antibodies by flow cytometry. (A) Bar plots and (B) non-linear regression analysis of V19S76K-5C8 binding to healthy donor-derived Vγ9Vδ2-T cell lines (n=3). (C) Bar plots and (D) non-linear regression analysis of V19S76K-5C8 binding to […] CD40⁺ CII cell line (n=3). […] (A, C: repeated-measures one-way ANOVA followed by Dunnett's post hoc test compared to condition without bsVHH; B, D: non-linear regression analysis).

[2] = molecular target: human Vγ9Vδ2 T cell receptor (human) (UniProt Q99603); experiment: flow cytometry on healthy donor-derived Vγ9Vδ2-T cell lines, anti-llama IgG detection, non-linear regression
[3] = molecular target: T1, human CD40; experiment: flow cytometry, CD40+ CII cell line (n=3), non-linear regression curve
Procedure: as §1

[4] = molecular target: human Vγ9Vδ2 T cell receptor (human) (UniProt Q99603); experiment: flow cytometry, healthy donor-derived Vγ9Vδ2-T cell lines (n=3), non-linear regression curve
[5] = test system: primary CLL cells; experiment: Monovalent VHH binding to primary CLL cells, flow cytometry; parameters: species or system human; conditions: n=5 samples; FIG. 2B
Text: Peripheral blood (PB) mononuclear cells (PBMCs, ≥95% CD5^+CD19^+) were isolated from PB samples from untreated CLL patients and cryopreserved as described previously (Hallaert et al. (2008), Blood 112(13):5141-9). The study was approved by the medical ethics committee at the Amsterdam UMC. Written informed consent from all subjects was obtained. Thawed cells were kept in Iscove's Modified Dulbecco's Medium (IMDM; 12440-053, Thermo Fisher Scientific), supplemented with 10% fetal calf serum (F7524, Merck), 200 mM L-glutamine (25030-123, Thermo Fisher Scientific), 0.05 mM β-mercapto-ethanol (M6250, Merck) and 10.000 U/mL penicillin/streptomycin (15140-122, Thermo Fisher Scientific), hereafter referred to as complete IMDM.
CD40 expression on primary CLL cells was confirmed and VHH binding was tested as described in Example 2.

[6] = molecular target: T2, human CD40 (CD40-transfected HEK293T cells) (Homo sapiens, UniProt P25942); experiment: Monovalent VHH binding to CD40-transfected HEK293T cells, Myc-tag flow cytometry; conditions: for average geometric mean fluorescence intensity (Myc-tag): CD40-transfected HEK293T cells, 2 experiments; for binding to CD40-expressing cells: detection of the Myc tag, FIG. 1B
T2 construct: expressed in transfected cells; host or cells: HEK293T
T2 sequence (P25942 21-277): as the sequence (P25942 21-277 limits assumed) above
Procedure: The embryonic kidney cell line HEK293T, either wildtype (WT) or transfected with human CD40, was grown in Dulbecco's Modified Eagle Medium (41965-039, Thermo Fisher Scientific, Waltham, Mass., USA), supplemented with 10% fetal calf serum (F7524, Merck, Kenilworth, N.J., USA), 200 mM L-glutamine (25030-123, Thermo Fisher Scientific), 0.05 mM β-mercapto-ethanol (M6250, Merck) and 10,000 U/mL penicillin/streptomycin (15140-122, Thermo Fisher Scientific), hereafter referred to as complete DMEM.
CD40 expression on CD40-transfected cells was confirmed by incubation with a PE-conjugated anti-CD40 antibody (IM1936U, Beckman Coulter, Brea, Calif., USA) for 20 minutes at 4° C. […] Bound VHH was detected by sequential incubation with mouse-anti-Myc tag (05-274, Merck) and AF488-conjugated goat-anti-mouse (A-11001, Thermo Fisher Scientific) antibodies for 20 minutes at 4° C.
Samples were measured on a FACSCanto cytometer (BD Biosciences, Franklin Lakes, N.J., USA) and analyzed with Flowjo MacV10.

[7] = molecular target: T3, CD40 (Homo sapiens, UniProt P25942); experiment: CD40 agonistic activity in primary CLL cells, 48 h, flow cytometry; assay type: cell-based; conditions: various concentrations, FIG. 3A-C
T3 construct: Primary chronic lymphocytic leukemia (CLL) cells express CD40 on the cell surface; endogenous in cells; host or cells: primary CLL PBMCs from untreated CLL patients
T3 sequence (P25942 21-277): as the sequence (P25942 21-277 limits assumed) above
Procedure: PBMCs (≥90% CD5^+CD19^+) from untreated CLL patients were obtained and cryopreserved as described in Example 3. Thawed cells were kept in complete IMDM.
To assess whether binding of the VHH to CD40 has agonistic effects, primary CLL PBMCs were cultured for 48 hours in the presence of VHH, medium control or recombinant multimeric CD40 ligand (rmCD40L; 100 ng/mL, Bioconnect).
After 48 hours, cells were harvested, washed and incubated with AF700-conjugated anti-CD19 (557921), FITC-conjugated anti-CD80 (6109965), APC-conjugated anti-CD86 (555660, all BD Biosciences), PE-conjugated anti-CD5 (12-0059-42, Thermo Fisher Scientific) and PECy7-conjugated anti-CD95 (305621, Biolegend, San Diego, Calif., USA) antibodies for 20 minutes at 4° C. Alternatively, after 48 hours, cells were harvested and viability was measured using Mitotracker Orange (25-minute incubation at 37° C.) and To-pro-3 (10-minute incubation at room temperature; both Thermo Fisher Scientific). Samples were measured on a FACSCanto cytometer (BD Biosciences) and analyzed with Flowjo MacV10.
To assess whether binding of the VHH has agonistic effects, primary CLL PBMCs were cultured with the indicated concentrations of V19S76K-5C8, medium control or rmCD40L for 48 hours and analyzed by flow cytometry as described in Example 4.

[8] = molecular target: T3, CD40; experiment: CD40 antagonistic activity in primary CLL cells: pre-incubation, then rmCD40L for 48 h; assay type: cell-based; conditions: 30 min pre-incubation, then rmCD40L 100 ng/mL for 48 hours; FIG. 4A-C
Procedure: PBMCs (≥90% CD5^+CD19^+) from untreated CLL patients were obtained and cryopreserved as described in […]. Thawed cells were kept in complete IMDM.
To test whether the VHH antagonizes CD40 stimulation, primary CLL PBMCs were pre-incubated with VHH or medium control for 30 minutes at 37° C. and subsequently cultured for 48 hours in the presence of rmCD40L (100 ng/mL).
After 48 hours, cells were analyzed by flow cytometry as described in Example 4.
To assess whether binding of the VHH has antagonistic effects, primary CLL PBMCs were pre-incubated with V19S76K-5C8 or medium control and then cultured with rmCD40L for 48 hours and analyzed by flow cytometry as described in Example 5.

Molecule	Kd [1] [nM]	Kd [2] [nM]	EC50 (read off the curve) [3] [nM]	EC50 (read off the curve) [4] [nM]	binding to primary CLL cells [5]	average geometric mean fluorescence intensity (Myc-tag) ([6]; VHH concentration 1 pM)	average geometric mean fluorescence intensity (Myc-tag) ([6]; VHH concentration 10 pM)	average geometric mean fluorescence intensity (Myc-tag) ([6]; VHH concentration 100 pM)	average geometric mean fluorescence intensity (Myc-tag) ([6]; VHH concentration 1 nM)	average geometric mean fluorescence intensity (Myc-tag) ([6]; VHH concentration 10 nM)	average geometric mean fluorescence intensity (Myc-tag) ([6]; VHH concentration 100 nM)	binding to CD40-expressing cells [6]	CD40 stimulation (viability, CD86 and CD95 expression) [7]	prevention of CD40L-induced CD40 stimulation (viability, CD86 and CD95 expression) [8]
B1	10.9	1.2	~10	1										
B2					higher binding intensity than V12t	5031	4938	5538	6783	9101	16175	bound to the CD40-expressing cells	did not induce any of these effects	prevented CD40 stimulation in a dose-dependent manner
B3					higher binding intensity than V12t							bound to the CD40-expressing cells	did not induce any of these effects	prevented CD40 stimulation in a dose-dependent manner
